The record followed here is patent US20230242675A1 (SHANGHAI EPIMAB BIOTHERAPEUTICS, published 2023).

Assay [1] concerns the target T1, human PD-L1/His fusion protein (human, UniProt Q9NZQ7 19-239). The experiment in a line: BLI off-rate; test group 4. As for the experimental part: (§1) Briefly, antibodies were characterized for affinities and binding kinetics by Octet®RED96 biolayer interferometry (Pall ForteBio LLC). Antibodies were captured by Anti-hIgG Fc Capture (AHC) Biosensors (Pall) at a concentration of 100 nM for 30 seconds. Sensors were then dipped into running buffer (1×pH 7.2 PBS, 0.05% Tween 20, 0.1% BSA) for 60 seconds to check baseline. Binding was measured by dipping sensors into a single concentration of recombinant human PD-L1/His fusion protein (Novoprotein). Dissociation was followed by dipping sensors into running buffer for 1200 seconds. The association and dissociation curves were fitted to a 1:1 Langmuir binding model using ForteBio Data Analysis software (Pall). […] The off-rate ratio serves as a data normalization. Accordingly, in each test group, the off-rate ratios of the humanized antibodies can be compared with that of the chimeric antibody, and the off-rate ratios of each of the humanized antibodies can be compared to one another within all test groups.

Assay [2] addresses T1, human PD-L1/His fusion protein. The experiment in a line: BLI Octet RED96, antibody on AHC sensor, single conc. PD-L1/His; test group 4; test group 4. On the procedure:
as §1
(Biolayer interferometry detects binding as a change in optical thickness at a sensor tip.)

For assay [3] the target is unchanged. The experiment in a line: BLI Octet Red, binding protein on AHC sensor, PD-L1-his in solution. As for the experimental part:
Sensors were then dipped into running buffer (1×pH 7.2 PBS, 0.05% Tween 20, 0.1% BSA) for 60 seconds to check baseline. Binding was measured by dipping sensors into a series diluted concentration of recombinant human PD-L1-his protein. Dissociation was followed by dipping sensors into running buffer for 1200 seconds. The association and dissociation curves were fitted to a 1:1 Langmuir binding model using ForteBio Data Analysis software (Pall). The equilibrium dissociation constant KD (M) of the reaction between antibodies and related target proteins was then calculated from the kinetic rate constants using the formula KD=koff/kₒₙ.

Another assay has as its target T2, human TGFβ1 (human, UniProt P01137 279-390).
T2 construct: also called TGFβ isoform 1; TGFβ1 (Cat. No. CA59, Novoprotein)
The experiment in a line: ELISA: human TGFβ1 coated (1 µg/ml), binding protein titrated 0.0006-10 nM, anti-human IgG Fc-HRP, OD450. On the procedure:
(§2) Accordingly, each of the wells of the ELISA microplates provided a reaction mixture to test the ability of a particular binding protein at a particular concentration to bind to a particular TGFβ isoform. […] Plates were washed three times in washing buffer (PBS containing 0.05% Tween 20) and blocked for 1 hour at 37° C. with 200 μl per well of blocking buffer (1% BSA in PBS containing 0.05% Tween 20). […] The wells containing the various binding mixtures were incubated at 37° C. for 1 hour to permit binding to TGFβ protein on the surface of the wells. Thereafter, the wells were washed four times with washing buffer, and anti-human IgG Fc HRP (Sigma, Catalog No. A0170) was diluted 1:10000 and added to the wells at 100 μl per well to detect binding protein that was bound to TGFβ protein present on the surface of a well. The plates were incubated for 1 hour at 37° C. and washed four times with washing buffer. 100 μl of tetramethylbenzidine (TMB) chromogenic solution were added per well. Following color development, the reaction was stopped with 1 N HCl, and absorbance at 450 nm (OD450) was measured on a VARIOSKAN™ LUX microplate reader (Thermo Scientific™).
(In an ELISA, binding on a coated surface is turned into a signal by an enzyme label.)

Another assay concerns the target T3, human TGFβ2 (human, UniProt P61812 303-414).
T3 construct: also called TGFβ isoform 2; TGFβ2 (Cat. No. CJ79, Novoprotein)
T3 sequence (looked up): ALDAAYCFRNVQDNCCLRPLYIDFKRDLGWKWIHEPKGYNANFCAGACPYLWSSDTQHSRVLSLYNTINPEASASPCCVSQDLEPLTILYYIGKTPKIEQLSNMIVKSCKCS
The experiment in a line: ELISA: human TGFβ2 coated (1 µg/ml), binding protein titrated 0.0006-10 nM, anti-human IgG Fc-HRP, OD450. On the procedure:
as §2

The target in assay [4] is T4, biotinylated human PD-L1 protein (ACROBiosystems, H82E5) (human, UniProt Q9NZQ7 19-238, biotinylated (site not stated)).
T4 construct: also called biotinylated PD-L1
The experiment in a line: dual-binding ELISA: human TGFβ1 coated, 5 nM binding protein bound to it, biotinylated human PD-L1 titrated 0.0006-10 nM (axis labelled Ab (nM)), streptavidin-HRP, OD450; the EC50 is of the titrated PD-L1. On the procedure: (§3) Briefly, ELISA plates were incubated overnight at 4° C. with 100 μl of a human TGFβ isoform diluted in PBS buffer, pH 7.4, at 1 μg/ml, to allow the human TGFβ isoform to coat (adsorb to) the surface of the wells. Plates were washed three times in washing buffer (PBS containing 0.05% Tween 20) and blocked for 1 hour at 37° C. with 200 μl per well blocking buffer (1% BSA in PBS containing 0.05% Tween 20). […] The wells were washed four times with washing buffer, and Streptavidin-HRP (Merck, RABHRP3) was diluted 1:10000 and added to the wells at 100 μl per well. The plates were incubated for 1 hour at 37° C. and washed four times in washing buffer. 100 μl of tetramethylbenzidine (TMB) chromogenic solution were added per well.

In assay [5] the target is T4, biotinylated human PD-L1 protein …. The experiment in a line: dual-binding ELISA: human TGFβ2 coated, 5 nM binding protein bound to it, biotinylated human PD-L1 titrated 0.0006-10 nM (axis labelled Ab (nM)), streptavidin-HRP, OD450; the EC50 is of the titrated PD-L1. On the procedure: as §3
For assay [6] the target is unchanged. The experiment in a line: dual-binding ELISA: human TGFβ3 coated, 5 nM binding protein bound to it, biotinylated human PD-L1 titrated 0.0006-10 nM (axis labelled Ab (nM)), streptavidin-HRP, OD450; the EC50 is of the titrated PD-L1. As for the experimental part:
as §3

T4 sequence (Q9NZQ7 19-238 limits assumed): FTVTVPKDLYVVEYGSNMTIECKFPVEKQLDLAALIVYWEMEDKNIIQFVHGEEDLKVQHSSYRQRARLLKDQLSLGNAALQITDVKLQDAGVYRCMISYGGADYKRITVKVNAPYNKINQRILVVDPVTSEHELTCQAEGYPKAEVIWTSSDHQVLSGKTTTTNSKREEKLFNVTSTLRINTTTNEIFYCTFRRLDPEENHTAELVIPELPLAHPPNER
T1 sequence (Q9NZQ7 19-239 limits assumed): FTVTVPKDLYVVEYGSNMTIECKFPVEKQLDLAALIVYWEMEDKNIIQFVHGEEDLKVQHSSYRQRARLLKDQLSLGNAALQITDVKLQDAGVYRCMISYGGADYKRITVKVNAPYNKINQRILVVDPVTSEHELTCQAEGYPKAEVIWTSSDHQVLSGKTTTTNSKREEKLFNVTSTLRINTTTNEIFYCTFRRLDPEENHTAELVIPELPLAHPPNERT
T2 sequence (P01137 279-390 limits assumed): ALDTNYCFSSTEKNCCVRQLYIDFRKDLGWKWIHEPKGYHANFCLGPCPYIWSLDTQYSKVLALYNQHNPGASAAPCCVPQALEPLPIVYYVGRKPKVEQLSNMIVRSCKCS

B1: HuEM0005-90-19 (antibody, human IgG1, V domains shown)
VH: EVQLVQSGAEVKKPGASVKVSCKTSGYTFTSHSINWVRQATGQGLEWMGYMYIGNGYTEYNEKFKGRVTMTSNTSISTAYMELSSLRSEDTAVYYCAKITPVVAPYVMDYWGQGTSVTVSS
VL: DIVMTQSPSFLSASVGDRVTITCKASQDVGTAVAWYQQKPGKAPKLLIYWASTRHTGVPDRFTGSGSGTDFTLTISSLQPEDFATYYCQQYSSYPYTFGQGTKLEIK
For B1, the “Off-Rate Ratio to that of EM0005-90c” value in assay [1] was 146%. Further, the koff in assay [2] stood at 0.00328 s⁻¹.

B2: FIT1012-7a TGFβ/PD-L1 bispecific binding protein (bispecific antibody, human IgG1, kappa)
heavy: not shown
chain: TIPPHVQKSVNNDMIVTDNNGAVKFPQLCKFCDVRFSTCDNQKSCMSNCSITSICEKPQEVCVAVWRKNDENITLETVCHDPKLPYHDFILEDAASPKCIMKEKKKPGETFFMCSCSSDECNDNIIFSEEYNTSNPDASTKGPSVFPLAPSSKSTSGGTAALGCLVKDYFPEPVTVSWNSGALTSGVHTFPAVLQSSGLYSLSSVVTVPSSSLGTQTYICNVNHKPSNTKVDKKVEPKSC
light: DIQLTQSPSFLSASVGDRVTITCKASQDVGTAVAWYQQKPGKAPKLLIYWASTRHTGVPSRFSGSGSGTEFTLTISSLQPEDFATYYCQQYSSYPYTFGQGTKLEIKRTVAAPSVFIFPPSDEQLKSGTASVVCLLNNFYPREAKVQWKVDNALQSGNSQESVTEQDSKDSTYSLSSTLTLSKADYEKHKVYACEVTHQGLSSPVTKSFNRGEC
notes: Six-chain protein; anti-PD-L1 moiety from HuEM0005-90-1 with G55A; four TGFβR2(ECD) traps
In turn, B2 yielded a Kd in assay [3] of less than 10 pM. Besides, the concentration giving a half-maximal response (EC50) amounted to 374 pM with human TGFβ1; 833 pM with human TGFβ2; 275 pM in assay [4]; 262 pM in assay [5]; 262 pM in assay [6].

In general, koff refers to a measure of how fast the partners let go of each other. A higher koff goes with fast dissociation. One may read the Kd as a measure of binding affinity in units of concentration. Low values mean tighter binding, high ones weaker binding. Usually EC50 stands for the concentration that produces a half-maximal response. Read a low EC50 as an effect from little substance.
